Assay [1] concerns the target T1, human CD63 (human, UniProt P08962 2-238).
T1 construct: stably transfected in NIH3T3/hCD63; The cell line is named under assay; also called hCD63
T1 sequence: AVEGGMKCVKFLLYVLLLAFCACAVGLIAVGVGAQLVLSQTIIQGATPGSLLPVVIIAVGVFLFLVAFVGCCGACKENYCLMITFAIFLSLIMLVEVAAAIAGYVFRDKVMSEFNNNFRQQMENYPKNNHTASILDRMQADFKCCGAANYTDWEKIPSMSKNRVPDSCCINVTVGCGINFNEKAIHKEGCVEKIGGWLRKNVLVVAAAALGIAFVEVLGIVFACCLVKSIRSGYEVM
Put plainly: ECL, LNCAP cells. The method, then: (§1) LNCAP cells were determined to have a lower human CD63 copy number than U87MG cells. Non-transfected NIH3T3 cells, which have no detectable expression of human CD63 by fluorescence activated cell sorting (FACS), were included as a negative control.
(§2) Briefly, cell lines were rinsed once in PBS buffer without Ca²⁺/Mg²⁺ and incubated for 10 minutes at 37° C. with Enzyme Free Cell Dissociation Solution (Millipore, Cat #S-004-C) to detach the cells. Cells were then washed once with PBS with Ca²⁺/Mg²⁺ and counted with a Cellometer™ Auto T4 cell counter (Nexcelom Bioscience, LLC). Approximately 2.0×10⁴ NIH3T3/hCD63, LNCAP, U87MG or NIH3T3 cells were seeded separately onto 96-well carbon electrode plates […]) and were then incubated for one hour at 37° C. Nonspecific binding sites were blocked with 2% BSA (w/v) in PBS with Ca²⁺/Mg²⁺ for one hour at room temperature (RT). Solutions containing anti-CD63 antibodies or isotype control antibodies at a range of concentrations (1.7 pM to 100 nM) in 0.5% BSA (w/v) in PBS with Ca²⁺/Mg²⁺, as well as control buffer alone, were then added in duplicate to the plate-bound NIH3T3/hCD63, LNCAP, U87MG or NIH3T3 cells and incubated for one hour at RT. Plates were subsequently washed to remove unbound antibodies using an AquaMax2000 plate washer with a cell washing head (MDS Analytical Technologies). […] Plates were washed and then incubated with Read Buffer (MSD, Cat #R92TD-2) according to the manufacturer's instructions. Luminescent signals were measured using a SECTOR Imager (MSD).

Assay [2] deals with T1, human CD63. In words: ECL, U87MG cells. The protocol:
as §1, §2

Assay [3] concerns the target T1, human CD63. In words: ECL, NIH3T3/hCD63 cells. The method, then:
as §1, §2

The target in assay [4] is T2, recombinant human CD63 extracellular loop 2 expressed with a C-terminal Myc-Myc-hexahistidine (human).
T2 construct: also called hCD63 EC loop 2-MMH; human CD63 EC loop 2-MMH
Put plainly: SPR Biacore, mAb captured, 37C. The method, then: (§3) Equilibrium dissociation constants (KD) for different CD63 (EC2) loop reagents binding to purified anti-CD63 monoclonal antibodies were determined using a real-time surface plasmon resonance based Biacore T200 biosensor or Biacore 2000 biosensor. All binding studies were performed in 10 mM HEPES, 150 mM NaCl, 3 mM EDTA, and 0.05% v/v Surfactant Tween-20, pH 7.4 (HBS-ET) running buffer at 25° C. and 37° C. The Biacore CMS sensor chip surface was first derivatized by amine coupling with either a rabbit anti-mouse Fc specific polyclonal antibody (GE Healthcare, Cat #BR100838) or an anti-human Fab kit (GE Healthcare, Cat #28958325) to capture anti-CD63 monoclonal antibodies. […] The association rate (Kₐ) and dissociation rate (kd) were determined by fitting the real-time binding sensorgrams to a 1:1 binding model with mass transport limitation using Scrubber 2.0c curve-fitting software. Binding dissociation equilibrium constant (KD) and dissociative half-life (t½) were calculated from the kinetic rates as: […]
(§4) Binding kinetics parameters for human CD63 EC loop 2 protein binding to different anti-CD63 monoclonal antibodies of the invention at 25° C. and 37° C. are shown in Tables 6 through 9.

Assay [5] has as its target T3, recombinant human CD63 extracellular loop 2 expressed with a C-terminal human Fc tag (human).
T3 construct: also called hCD63 EC loop 2-hFc; human CD63 EC loop 2-Fc
In words: SPR Biacore, mAb captured, 37C. The protocol:
as §3, §4

For assay [6], the target named is T2, recombinant human CD63 extracellular …. In words: SPR Biacore, mAb captured, 25C. The method, then: as §3, §4
Assay [7] has as its target T3, recombinant human CD63 extracellular …. In words: SPR Biacore, mAb captured, 25C. The protocol:
as §3, §4
On the technique in general: SPR reads the build-up and loss of mass on a sensor chip optically.

As usually defined, the EC50 is the midpoint of the concentration-response curve. A high value points to lower potency in that assay. In general, Kd refers to the free concentration of one partner at which half of the binding sites on the other are occupied at equilibrium, for simple one-to-one binding. Usually koff stands for a measure of how fast the partners let go of each other. As a reminder, the kon is the rate constant with which the complex forms.

T2 sequence (chain, as listed by the source limits assumed): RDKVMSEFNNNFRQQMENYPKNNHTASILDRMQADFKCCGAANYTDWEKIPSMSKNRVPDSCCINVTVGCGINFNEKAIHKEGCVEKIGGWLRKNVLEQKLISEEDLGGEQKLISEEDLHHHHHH
T3 sequence (chain, as listed by the source limits assumed): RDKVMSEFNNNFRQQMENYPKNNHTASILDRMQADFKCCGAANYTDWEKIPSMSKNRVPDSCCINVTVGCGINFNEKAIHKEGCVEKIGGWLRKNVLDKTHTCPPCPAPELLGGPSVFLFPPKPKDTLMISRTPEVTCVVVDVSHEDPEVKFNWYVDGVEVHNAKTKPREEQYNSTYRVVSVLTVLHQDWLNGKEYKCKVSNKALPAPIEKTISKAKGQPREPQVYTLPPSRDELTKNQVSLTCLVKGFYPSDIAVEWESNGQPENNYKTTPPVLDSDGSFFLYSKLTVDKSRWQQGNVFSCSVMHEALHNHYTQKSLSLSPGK

B1: H4H11993P2 (antibody, V domains shown)
VH: QVQLVESGGGLVKPGGSLRLSCAASGFTFSDYYMNWIRQAPGKGLEWVSYINGGGYTMYYADSVKGRFTISRDNAKNSLYLQMNSLRAEDTAVYYCARDRRTTVSIDYWGQGTLVTVSS
VL: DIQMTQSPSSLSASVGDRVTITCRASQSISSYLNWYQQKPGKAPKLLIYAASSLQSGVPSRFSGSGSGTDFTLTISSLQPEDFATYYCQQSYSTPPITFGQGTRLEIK
As to B1, in assay [1], the response was half-maximal at 6.7 nM (EC50) and the “binding ratio at 3.7 nM vs NIH3T3” value is 8 fold. Besides, in assay [2], the 50% effective concentration (EC50) turned out to be 17 nM and the “binding ratio at 3.7 nM vs NIH3T3” value turned out to be 62 fold. For the same molecule, in assay [3], the EC50 turned out to be 2.5 nM and the “binding ratio at 3.7 nM vs NIH3T3” value was determined as 227 fold. Further, the “100 nM Ag Bound (RU)” value in assay [4] stood at 3 RU. Also, in assay [5], the “100 nM Ag Bound (RU)” value amounted to 156 RU, the Kd was determined as 7.92 nM, the koff was determined as 0.00457 s⁻¹ and the kon is 577000 M⁻¹ s⁻¹. In addition, the t1/2 in assay [5] was determined as 3 min. Moreover, the “100 nM Ag Bound (RU)” value in assay [6] came out at 10 RU. Further, in assay [7], the “100 nM Ag Bound (RU)” value was 194 RU, the dissociation constant Kd was 2 nM, the koff amounted to 0.000728 s⁻¹ and the kon was determined as 364000 M⁻¹ s⁻¹. Also, the t1/2 in assay [7] came out at 16 min.

B2: H4H11990P2 (antibody, V domains shown)
VH: QVQLVESGGGLVKPGGSLRLSCATSGFTFTDYFMNWIRQAPGKGLEWVSYISNSGSIRYYADSVRGRFSISRDNAKNSLYLQMSSLRADDTAVYYCVRDPRQIYGMDVWGQGTTVTVSS
VL: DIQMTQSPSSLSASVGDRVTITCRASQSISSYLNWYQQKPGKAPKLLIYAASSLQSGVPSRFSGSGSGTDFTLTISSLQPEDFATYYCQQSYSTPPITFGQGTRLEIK
Turning to B2, in assay [1], the EC50 is 5.1 nM and the “binding ratio at 3.7 nM vs NIH3T3” value stood at 6 fold. Further, in assay [2], the concentration giving a half-maximal response (EC50) was 4.8 nM and the “binding ratio at 3.7 nM vs NIH3T3” value amounted to 66 fold. Moreover, in assay [3], a half-maximal effect (EC50) was put at 0.93 nM and the “binding ratio at 3.7 nM vs NIH3T3” value came to 168 fold. Moreover, in assay [4], the “100 nM Ag Bound (RU)” value was found to be 81 RU, the Kd stood at 124 nM, the koff came out at 0.0198 s⁻¹ and the kon stood at 160000 M⁻¹ s⁻¹. Further, the t1/2 in assay [4] is 0.6 min. For the same molecule, in assay [5], the “100 nM Ag Bound (RU)” value was found to be 338 RU, the Kd stood at 0.104 nM, the off-rate constant (koff) is 4.96e-05 s⁻¹ and the kon turned out to be 482000 M⁻¹ s⁻¹. Also, the t1/2 in assay [5] came to 233 min. In assay [6], the “100 nM Ag Bound (RU)” value is 94 RU, the Kd was determined as 30.6 nM, the koff came to 0.00591 s⁻¹ and the kon is 193000 M⁻¹ s⁻¹. Further, the t1/2 in assay [6] stood at 2 min. Further, in assay [7], the “100 nM Ag Bound (RU)” value is 275 RU, the Kd amounted to 0.209 nM, the koff came to 8.99e-05 s⁻¹ and the kon stood at 430000 M⁻¹ s⁻¹. Besides, the t1/2 in assay [7] is 128 min.

B3: H4H11992P2 (antibody, V domains shown)
VH: QVQLVESGGGLVKPRGSLRLSCAASGFIFDDYFMNWIRQAPGKGLEWVSYISNSGNTKYYADSVKGRFTISRDNAYNSLYLQMNSLRAEDTAVYYCVRDPRSYYGMDVWGQGTTVTVSS
VL: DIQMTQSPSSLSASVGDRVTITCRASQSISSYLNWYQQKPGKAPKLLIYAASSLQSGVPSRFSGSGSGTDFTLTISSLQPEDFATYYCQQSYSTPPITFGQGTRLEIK
Turning to B3, in assay [1], a half-maximal effect (EC50) was put at 3.6 nM and the “binding ratio at 3.7 nM vs NIH3T3” value stood at 4 fold. In assay [2], the half-maximal effective concentration (EC50) was found to be 5.5 nM and the “binding ratio at 3.7 nM vs NIH3T3” value is 33 fold. Moreover, in assay [3], the EC50 amounted to 1.5 nM and the “binding ratio at 3.7 nM vs NIH3T3” value stood at 87 fold. Further, in assay [4], the “100 nM Ag Bound (RU)” value amounted to 30 RU, the Kd amounted to 12300 nM, the off-rate constant (koff) was found to be 0.0814 s⁻¹ and the kon is 6600 M⁻¹ s⁻¹. Also, in assay [4], the t1/2 was found to be 0.1 min. Also, in assay [5], the “100 nM Ag Bound (RU)” value worked out at 358 RU, the Kd turned out to be 1.05 nM, the koff worked out at 0.000682 s⁻¹ and the kon amounted to 647000 M⁻¹ s⁻¹. In addition, in assay [5], the t1/2 was 17 min. In assay [6], the “100 nM Ag Bound (RU)” value amounted to 53 RU, the Kd is 213 nM, the koff worked out at 0.0267 s⁻¹ and the kon worked out at 125000 M⁻¹ s⁻¹. For the same molecule, the t1/2 in assay [6] amounted to 0.4 min. For the same molecule, in assay [7], the “100 nM Ag Bound (RU)” value amounted to 304 RU, the Kd turned out to be 0.401 nM, the koff was 0.000257 s⁻¹ and the kon was 641000 M⁻¹ s⁻¹. Moreover, the t1/2 in assay [7] worked out at 45 min.

B4: H4H11997P2 (antibody, V domains shown)
VH: QVQLVESGGGLVKPGGSLRLSCAASGFTFSDYYMNWIRQAPGKGLEWITYINNGGYTKYYADSVKGRFIISRDNTKNSVHLQMNSLRAEDTAVYYCVRDPRMYYGMDVWGQGTTVTVSS
VL: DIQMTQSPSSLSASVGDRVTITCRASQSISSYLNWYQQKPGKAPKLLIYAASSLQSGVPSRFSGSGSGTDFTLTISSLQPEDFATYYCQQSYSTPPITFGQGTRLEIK
As for B4, in assay [1], the EC50 is 1.9 nM and the “binding ratio at 3.7 nM vs NIH3T3” value worked out at 11 fold. Moreover, in assay [2], the EC50 was found to be 1.7 nM and the “binding ratio at 3.7 nM vs NIH3T3” value stood at 99 fold. In addition, in assay [3], the concentration giving a half-maximal response (EC50) turned out to be 0.94 nM and the “binding ratio at 3.7 nM vs NIH3T3” value is 266 fold. For the same molecule, in assay [4], the “100 nM Ag Bound (RU)” value was 74 RU, the Kd amounted to 145 nM, the koff is 0.0192 s⁻¹ and the kon was determined as 132000 M⁻¹ s⁻¹. The t1/2 in assay [4] is 0.6 min. In addition, in assay [5], the “100 nM Ag Bound (RU)” value was 342 RU, the Kd came to 0.045 nM, the koff stood at 1.91e-05 s⁻¹ and the kon turned out to be 425000 M⁻¹ s⁻¹. In addition, in assay [5], the t1/2 worked out at 603 min. In assay [6], the “100 nM Ag Bound (RU)” value came out at 106 RU, the Kd is 19.9 nM, the koff was 0.00371 s⁻¹ and the kon is 186000 M⁻¹ s⁻¹. For the same molecule, the t1/2 in assay [6] was determined as 3.1 min. Further, in assay [7], the “100 nM Ag Bound (RU)” value was 291 RU, the Kd was 0.149 nM, the koff is 6.2e-05 s⁻¹ and the kon amounted to 417000 M⁻¹ s⁻¹. Moreover, the t1/2 in assay [7] came out at 186 min.

B5: H4H11995P2 (antibody, V domains shown)
VH: EVQLVESGGALVQPGRSLRLSCAASGFTFDDYAMHWVRQAPGKGLEWVSGISWNSGTMGYADSVKGRFTISRDNAKKSLYLQMNSLRAEDTALYYCGKGLLHQWEVLDYWGQGTLVTVSS
VL: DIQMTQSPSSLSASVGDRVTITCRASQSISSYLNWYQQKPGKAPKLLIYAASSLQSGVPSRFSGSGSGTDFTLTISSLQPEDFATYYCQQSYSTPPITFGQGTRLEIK
On to B5, for which, in assay [1], the response was half-maximal at 55 nM (EC50) and the “binding ratio at 3.7 nM vs NIH3T3” value came out at 5 fold. For the same molecule, in assay [2], the EC50 was 13 nM and the “binding ratio at 3.7 nM vs NIH3T3” value turned out to be 61 fold. Also, in assay [3], the EC50 came out at 5 nM and the “binding ratio at 3.7 nM vs NIH3T3” value worked out at 212 fold. Moreover, in assay [4], the “100 nM Ag Bound (RU)” value is 3 RU, the dissociation constant (Kd) was determined as 1620 nM, the koff was found to be 0.128 s⁻¹ and the kon was found to be 79400 M⁻¹ s⁻¹. Besides, in assay [4], the t1/2 amounted to 0.1 min. Also, in assay [5], the “100 nM Ag Bound (RU)” value was determined as 116 RU, the equilibrium dissociation constant (Kd) was 14.5 nM, the koff is 0.0188 s⁻¹ and the kon was determined as 1.29e+06 M⁻¹ s⁻¹. Further, the t1/2 in assay [5] was found to be 1 min. Also, the “100 nM Ag Bound (RU)” value in assay [6] worked out at 8 RU. In addition, in assay [7], the “100 nM Ag Bound (RU)” value is 198 RU, the Kd is 10.1 nM, the koff worked out at 0.00555 s⁻¹ and the kon turned out to be 552000 M⁻¹ s⁻¹. Also, in assay [7], the t1/2 was 2 min.

The record behind these values is patent US20210079109A1 (Regeneron, published 2021).
